Measured values reported in PMC3253551 (Nature structural & molecular biology, 2011).

T1: 15N-13C-2D triply labeled MPER 27mer (HIV-1 (HxB2))
T1 chain: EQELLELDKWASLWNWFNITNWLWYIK

T2: full-length MPER segment (peptide containing the C-helical MPER region) (HIV-1 HXB2, UniProt P04578)
T2 chain: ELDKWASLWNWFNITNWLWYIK

T3: MPER peptide QQEKNEQELLELDKWASLWNWFNI (binding analysis in membrane environment) (HIV-1 HXB2)
T3 chain: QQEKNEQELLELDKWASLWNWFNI

B1: 2F5 Fab, wild type (Fab, V domains shown)
VH: RITLKESGPPLVKPTQTLTLTCSFSGFSLSDFGVGVGWIRQPPGKALEWLAIIYSDDDKRYSPSLNTRLTITKDTSKNQVVLVMTRVSPVDTATYFCAHRRGPTTLFGVPIARGPVNAMDVWGQGITVTISS
VL: ALQLTQSPSSLSASVGDRITITCRASQGVTSALAWYRQKPGSPPQLLIYDASSLESGVPSRFSGSGSGTEFTLTISTLRPEDFATYYCQQLHFYPHTFGGGTRVDVR
B2: 2F5 broadly neutralizing monoclonal antibody, wild type (antibody, V domains shown)
VH: RITLKESGPPLVKPTQTLTLTCSFSGFSLSDFGVGVGWIRQPPGKALEWLAIIYSDDDKRYSPSLNTRLTITKDTSKNQVVLVMTRVSPVDTATYFCAHRRGPTTLFGVPIARGPVNAMDVWGQGITVTISS
VL: ALQLTQSPSSLSASVGDRITITCRASQGVTSALAWYRQKPGSPPQLLIYDASSLESGVPSRFSGSGSGTEFTLTISTLRPEDFATYYCQQLHFYPHTFGGGTRVDVR
B3: 2F5m L100AS F100BS monoclonal antibody (antibody, V domains shown)
VH: RITLKESGPPLVKPTQTLTLTCSFSGFSLSDFGVGVGWIRQPPGKALEWLAIIYSDDDKRYSPSLNTRLTITKDTSKNQVVLVMTRVSPVDTATYFCAHRRGPTTSSGVPIARGPVNAMDVWGQGITVTISS
VL: ALQLTQSPSSLSASVGDRITITCRASQGVTSALAWYRQKPGSPPQLLIYDASSLESGVPSRFSGSGSGTEFTLTISTLRPEDFATYYCQQLHFYPHTFGGGTRVDVR
B4: 2F5m F100BS monoclonal antibody (antibody, V domains shown)
VH: RITLKESGPPLVKPTQTLTLTCSFSGFSLSDFGVGVGWIRQPPGKALEWLAIIYSDDDKRYSPSLNTRLTITKDTSKNQVVLVMTRVSPVDTATYFCAHRRGPTTLSGVPIARGPVNAMDVWGQGITVTISS
VL: ALQLTQSPSSLSASVGDRITITCRASQGVTSALAWYRQKPGSPPQLLIYDASSLESGVPSRFSGSGSGTEFTLTISTLRPEDFATYYCQQLHFYPHTFGGGTRVDVR
B5: 2F5m I100FS monoclonal antibody (antibody, V domains shown)
VH: RITLKESGPPLVKPTQTLTLTCSFSGFSLSDFGVGVGWIRQPPGKALEWLAIIYSDDDKRYSPSLNTRLTITKDTSKNQVVLVMTRVSPVDTATYFCAHRRGPTTLFGVPSARGPVNAMDVWGQGITVTISS
VL: ALQLTQSPSSLSASVGDRITITCRASQGVTSALAWYRQKPGSPPQLLIYDASSLESGVPSRFSGSGSGTEFTLTISTLRPEDFATYYCQQLHFYPHTFGGGTRVDVR

How the values were obtained:
[1] = target: T1, 15N-13C-2D triply labeled MPER 27mer; test: NMR chemical shift perturbation and cross-saturation transfer
[2] = target: T2, full-length MPER segment (peptide …); test: SPR
[3] = target: trimeric ADA strain HIV-1 envelope protein GP160 (HIV-1 subtype B, isolate ADA, UniProt Q6TAN8, strain); test: flow cytometry on cells
[4] = target: wt MPER peptide of the alanine scan (HIV-1 HXB2, UniProt P04578); test: SPR
[5] = target: T3, MPER peptide QQEKNEQELLELDKWASLWNWFNI …; test: SPR

| Binder | binding result [1] | binding result [2] | % of cells stained [3] | binding result [4] | Kd [5] [nM] |
| --- | --- | --- | --- | --- | --- |
| B1 | binds | – | – | – | – |
| B2 | – | binds | 36 % of cells stained | binds | 3.1 |
| B3 | – | binds | 3.9 % of cells stained | – | 476 |
| B4 | – | binds | 12 % of cells stained | binds | 97 |
| B5 | – | binds | 20 % of cells stained | binds | 28 |
